The values that follow are results of earlier work, collected in publication PMC12590814.

Read-outs that look alike come from different tables or passages of the source.

Usually Kd stands for the concentration at which binding is half-saturated.

In data set [1] the target is calmodulin (Homo sapiens) (UniProt P0DP23).
For data set [2] the target is unchanged. This is another data set of the same source.

For PMCA3 (from UniProt Q16720), the Kd in data set [1] was 7.5 nM.

In the case of PMCA2 (from UniProt Q01814), the Kd in data set [2] was 7.5 nM.
